Measurements taken from article PMC6996796.
Where “and” joins values, the source holds several entries; their conditions need not be identical. Identical values can stand only once.

Molecular target: branched K11/K48 triubiquitin (Homo sapiens) (UniProt P0CG48)
Assay: NMR
Settings: modification not given

Sequence of hHR23A UBA2 UBA2, P54725 (P54725 315-361): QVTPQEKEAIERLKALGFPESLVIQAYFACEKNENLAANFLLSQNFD

Kd: 26 µM and 248 µM
Substance: hHR23A UBA2 UBA2, P54725
